The values that follow come from PMC4361902 (Nature, 2014).

The data set “cryo-EM structure” deals with the molecule itself. Kind of data set: cryo-EM structure.
The data set “crystal structure” deals with the molecule itself. Put plainly: crystal structure.

B1: TolC (tolC1392, coexpressed from pRSFduet-1-acrA-polyGS-acrZHis5-tolC1392) (natural protein)
chain: ENLMQVYQQARLSNPELRKSAADRDAAFEKINEARSPLLPQLGLGADYTYSNGYRDANGINSNATSASLQLTQSIFDMSKWRALTLQEKAAGIQDVTYQTDQQTLILNTATAYFNVLNAIDVLSYTQAQKEAIYRQLDQTTQRFNVGLVAITDVQNARAQYDTVLANEVTARNNLDNAVEQLRQITGNYYPELAALNVENFKTDKPQPVNALLKEAEKRNLSLLQARLSQDLAREQIRQAQDGHLPTLDLTASTGISDTSYSGSKTRGAAGTQYDDSNMGQNKVGLSFSLPIYQGGMVNSQVKQAQYNFVGASEQLESAHRSVVQTVRSSFNNINASISSINAYKQAVVSAQSSLDAMEAGYSVGTRTIVDVLDATTTLYNAKQELANARYNYLINQLNIKSALGTLNEQDLLALNNALSKPVSTNPENVAPQTPEQNAIAD
Regarding B1, in the data set “cryo-EM structure”, the “stoichiometry N” value is 3.

B2: AcrB as it stands in the efflux pump assembly (AcrB moiety of the AcrA-AcrB fusion) (domain or fragment, E. coli, UniProt P31224 1-1047, looked up)
chain: MPNFFIDRPIFAWVIAIIIMLAGGLAILKLPVAQYPTIAPPAVTISASYPGADAKTVQDTVTQVIEQNMNGIDNLMYMSSNSDSTGTVQITLTFESGTDADIAQVQVQNKLQLAMPLLPQEVQQQGVSVEKSSSSFLMVVGVINTDGTMTQEDISDYVAANMKDAISRTSGVGDVQLFGSQYAMRIWMNPNELNKFQLTPVDVITAIKAQNAQVAAGQLGGTPPVKGQQLNASIIAQTRLTSTEEFGKILLKVNQDGSRVLLRDVAKIELGGENYDIIAEFNGQPASGLGIKLATGANALDTAAAIRAELAKMEPFFPSGLKIVYPYDTTPFVKISIHEVVKTLVEAIILVFLVMYLFLQNFRATLIPTIAVPVVLLGTFAVLAAFGFSINTLTMFGMVLAIGLLVDDAIVVVENVERVMAEEGLPPKEATRKSMGQIQGALVGIAMVLSAVFVPMAFFGGSTGAIYRQFSITIVSAMALSVLVALILTPALCATMLKPIAKGDHGEGKKGFFGWFNRMFEKSTHHYTDSVGGILRSTGRYLVLYLIIVVGMAYLFVRLPSSFLPDEDQGVFMTMVQLPAGATQERTQKVLNEVTHYYLTKEKNNVESVFAVNGFGFAGRGQNTGIAFVSLKDWADRPGEENKVEAITMRATRAFSQIKDAMVFAFNLPAIVELGTATGFDFELIDQAGLGHEKLTQARNQLLAEAAKHPDMLTSVRPNGLEDTPQFKIDIDQEKAQALGVSINDINTTLGAAWGGSYVNDFIDRGRVKKVYVMSEAKYRMLPDDIGDWYVRAADGQMVPFSAFSSSRWEYGSPRLERYNGLPSMEILGQAAPGKSTGEAMELMEQLASKLPTGVGYDWTGMSYQERLSGNQAPSLYAISLIVVFLCLAALYESWSIPFSVMLVVPLGVIGALLAATFRGLTNDVYFQVGLLTTIGLSAKNAILIVEFAKDLMDKEGKGLIEATLDAVRMRLRPILMTSLAFILGVMPLVISTGAGSGAQNAVGTGVMGGMVTATVLAIFFVPVFFVVVRRRFSRKNEDIEHSHTVD
Take B2: the “stoichiometry N” value in the data set “cryo-EM structure” is 3.

B3: AcrB with the C-terminal histidines removed (pET21a-acrBΔHis) (natural protein, E. coli, UniProt P31224 1-1047, looked up)
chain: MPNFFIDRPIFAWVIAIIIMLAGGLAILKLPVAQYPTIAPPAVTISASYPGADAKTVQDTVTQVIEQNMNGIDNLMYMSSNSDSTGTVQITLTFESGTDADIAQVQVQNKLQLAMPLLPQEVQQQGVSVEKSSSSFLMVVGVINTDGTMTQEDISDYVAANMKDAISRTSGVGDVQLFGSQYAMRIWMNPNELNKFQLTPVDVITAIKAQNAQVAAGQLGGTPPVKGQQLNASIIAQTRLTSTEEFGKILLKVNQDGSRVLLRDVAKIELGGENYDIIAEFNGQPASGLGIKLATGANALDTAAAIRAELAKMEPFFPSGLKIVYPYDTTPFVKISIHEVVKTLVEAIILVFLVMYLFLQNFRATLIPTIAVPVVLLGTFAVLAAFGFSINTLTMFGMVLAIGLLVDDAIVVVENVERVMAEEGLPPKEATRKSMGQIQGALVGIAMVLSAVFVPMAFFGGSTGAIYRQFSITIVSAMALSVLVALILTPALCATMLKPIAKGDHGEGKKGFFGWFNRMFEKSTHHYTDSVGGILRSTGRYLVLYLIIVVGMAYLFVRLPSSFLPDEDQGVFMTMVQLPAGATQERTQKVLNEVTHYYLTKEKNNVESVFAVNGFGFAGRGQNTGIAFVSLKDWADRPGEENKVEAITMRATRAFSQIKDAMVFAFNLPAIVELGTATGFDFELIDQAGLGHEKLTQARNQLLAEAAKHPDMLTSVRPNGLEDTPQFKIDIDQEKAQALGVSINDINTTLGAAWGGSYVNDFIDRGRVKKVYVMSEAKYRMLPDDIGDWYVRAADGQMVPFSAFSSSRWEYGSPRLERYNGLPSMEILGQAAPGKSTGEAMELMEQLASKLPTGVGYDWTGMSYQERLSGNQAPSLYAISLIVVFLCLAALYESWSIPFSVMLVVPLGVIGALLAATFRGLTNDVYFQVGLLTTIGLSAKNAILIVEFAKDLMDKEGKGLIEATLDAVRMRLRPILMTSLAFILGVMPLVISTGAGSGAQNAVGTGVMGGMVTATVLAIFFVPVFFVVVRRRFSRKNEDIEHSHTVD
As for B3, in the data set “crystal structure”, the “stoichiometry N” value was 3.
